The values that follow come from patent US20090291885A1.

Test in all cases: cell-based or functional assay
For test [1], the target named is human Kv1.3 voltage-gated potassium channel (human) (UniProt P22001).
Test [2] has as its target human Kv1.3 channel (human) (UniProt P22001).
Test [3] concerns the target human Kv1.1 channel (human) (UniProt Q09470).
Test [4] deals with human Kv1.3 channel (human) (UniProt P22001). The source holds these as a separate data set.

Read-outs that look alike come from different tables or passages of the source. Ends that are not written are not given here.

Chain of human Kv1.3 channel (human) (P22001 whole entry): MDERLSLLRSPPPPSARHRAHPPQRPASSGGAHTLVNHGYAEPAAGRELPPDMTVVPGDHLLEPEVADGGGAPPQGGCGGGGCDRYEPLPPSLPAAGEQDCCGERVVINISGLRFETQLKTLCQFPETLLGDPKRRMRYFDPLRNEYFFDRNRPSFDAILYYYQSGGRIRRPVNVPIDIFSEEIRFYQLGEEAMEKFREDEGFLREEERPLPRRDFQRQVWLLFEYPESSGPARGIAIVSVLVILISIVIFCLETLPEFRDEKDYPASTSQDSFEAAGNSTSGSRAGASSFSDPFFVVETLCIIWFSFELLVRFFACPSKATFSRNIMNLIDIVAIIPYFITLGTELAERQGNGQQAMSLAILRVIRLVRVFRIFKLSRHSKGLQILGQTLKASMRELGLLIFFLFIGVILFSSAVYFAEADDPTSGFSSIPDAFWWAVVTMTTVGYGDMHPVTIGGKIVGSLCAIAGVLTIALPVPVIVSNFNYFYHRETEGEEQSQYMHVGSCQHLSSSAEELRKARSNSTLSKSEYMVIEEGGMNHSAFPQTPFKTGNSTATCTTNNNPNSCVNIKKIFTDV
Chain of human Kv1.1 channel (human) (Q09470 whole entry): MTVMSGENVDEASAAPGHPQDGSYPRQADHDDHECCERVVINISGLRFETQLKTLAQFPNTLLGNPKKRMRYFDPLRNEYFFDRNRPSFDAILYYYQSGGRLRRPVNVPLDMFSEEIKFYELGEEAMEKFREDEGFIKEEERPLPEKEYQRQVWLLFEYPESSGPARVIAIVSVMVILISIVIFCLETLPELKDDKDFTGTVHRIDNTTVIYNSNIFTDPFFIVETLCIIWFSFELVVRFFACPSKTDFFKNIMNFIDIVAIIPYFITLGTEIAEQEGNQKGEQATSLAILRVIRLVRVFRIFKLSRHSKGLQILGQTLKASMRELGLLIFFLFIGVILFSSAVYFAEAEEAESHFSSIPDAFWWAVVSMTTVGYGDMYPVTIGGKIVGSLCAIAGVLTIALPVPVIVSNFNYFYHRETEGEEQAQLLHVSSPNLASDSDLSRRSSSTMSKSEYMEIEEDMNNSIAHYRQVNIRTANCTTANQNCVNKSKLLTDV
Chain of human Kv1.3 voltage-gated potassium channel (human) (P22001 whole entry): as the sequence (P22001 whole entry) above

Regarding 20k PEG-ShK (peptide), in test [1], the WB/IFNg (IC50, nM) turned out to be 0.065 nM and the WB/IL-2 (IC50, nM) was determined as 0.046 nM. In test [2], Fc-L25-ShK[2-35] (Fc fusion) displayed an IC50, whole cell patch clamp electrophysiology on HEK293/Kv1.3 cells of 150 pM. In test [3], Synthetic OSK1 (peptide) showed a hKv1.1: IC50 [pM] of 160 pM. Further, in test [2], the hKv1.1/hKv1.3 (selectivity ratio of the IC50s) stood at 4 fold and the hKv1.3: IC50 [pM] is 39 pM.

Take “E. coli-derived Fc-L-ShK[2-35] (Fc fusion)”: in test [2], the Kv1.3 IC50 by IWQ stood at 2.8 nM and the Kv1.3 IC50 by WCVC amounted to 1.3 nM. In test [2], PEG-OSK1 (peptide) yielded a peak IC50, whole cell patch clamp on HEK293 cells stably expressing human Kv1.3 of 1.28 nM. Take “E. coli-derived ShK[2-35]-L-Fc (Fc fusion)”: the Kv1.3 IC50 by IWQ in test [2] amounted to 4.9 nM. For “E. coli-derived Fc-L-ShK[1-35] (Fc fusion)”, the Kv1.3 IC50 by WCVC in test [2] worked out at 1.4 nM. Consider E. coli-derived Fc-L-OSK1 (Fc fusion), for which, in test [2], the Kv1.3 IC50 by WCVC was 3.2 nM. Regarding GGGGS-Osk1 (peptide), in test [2], the WB/IFNg IC50 came out at 2.2 nM and the WB/IL-2 IC50 stood at 1.36 nM. In test [2], “E. coli-derived Shk[1-35]-L-Fc (Fc fusion)” showed a Kv1.3 IC50 by IWQ of 2.4 nM. As to OSK1 (wild-type) (peptide), in test [3], the Kv1.1 IC50, whole cell patch clamp stood at 0.202 nM. In test [2], this molecule displayed a Kv1.3 IC50, whole cell patch clamp of 0.039 nM and a Kv1.3 Selectivity (= Kv1.1/Kv.3 IC50) of 5 fold. In test [2], Fc-L10-OSK1 (Fc fusion) had a fold loss of potency in Kv1.3 current block against synthetic OSK1 of 5 fold. In test [4], RSCIDTIPKSRCTAFQCKHSMKYRLSFCRKTCGTC (not fully specified; ends and bridges not checked) [20K PEG-ShK[1-35]] had a peak IC50, whole cell patch clamp on HEK293 cells stably expressing human Kv1.3 of 0.169 nM.
